Results as given in patent US20250304677A1 (VIB VZW, published 2025).
One block for each binder: values may come before it.

How the values were obtained:
[1] = molecular target: T1, human folate receptor beta (FRβ) (human, UniProt P14207 17-230, limits assumed); assay: flow cytometry on transiently transfected HEK293T cells, mouse anti-His then anti-mouse-PE (B575-A)
T1 construct: also called hFOLR2; human FOLR2
Text: (§1) FIGS. 2A-2C illustrates the epitope mapping of anti-FOLR1 VHHs on human FOLR1/2 chimeras. ^{∘}FIG. 2A) To narrow down the epitope of the anti-folate receptor alpha ^{∘}FOLR1) VHHs, chimeric constructs were generated by exchanging a sequence block in human FOLR1 ^{∘}hFOLR1) by the corresponding human folate receptor beta ^{∘}hFOLR2) sequence, since the VHHs are able to bind both hFOLR1 and mouse FOLR1 ^{∘}mFOLR1; SEQ ID No.97), but not hFOLR2. These regions are indicated by the green arrows. Chimera 1 SEQ ID No. 67) and 7 ^{∘}Ch7; SEQ ID No. 73) also contain an additional residue change at a separate location. […] HEK293T cells were transfected with hFOLR1, hFOLR2, one of the hFOLR1/2 chimeric constructs ^{∘}FIG. 2B) or single residue mutants ^{∘}FIG. 2C). Binding of VHHs 2HFO19, 2HFO42, 3MFR60, and a mouse anti-FOLR1 monoclonal antibody ^{∘}mAb) was detected using a mouse anti-His tag antibody for the VHHs followed by an anti-mouse-phycoerythrin antibody. All VHHs were tested at a concentration of 200 nM and untransfected cells were used as a negative control. The colors used for the VHHs represent the different CDR3 families; blue: family 1, green: family 3, grey: family 10.
(§2) To further narrow down which specific residues might play a role, single residues of human FRα in the chimera 4 region that are not conserved between FRα and FRβ were mutated to their human FRβ counterpart. While all VHHs retained binding to human FRα E140Q SEQ ID No. 77), R147H ^{∘}SEQ ID No. 79), and Y150H ^{∘}SEQ ID No. 80) ^{∘}data not shown), binding was completely abolished when the Q141R mutation ^{∘}SEQ ID No. 78) was introduced ^{∘}FIG. 2C). To verify the role of this residue in the binding of the VHHs, the R135 residue in human FRβ was replaced by glutamine ^{∘}SEQ ID No. 81) and binding of the VHHs was analyzed. […] In addition to having ^{∘}partially) overlapping epitopes, the VHHs thus all require residue Q141 for binding.

human FRα Q141R = molecular target: T2, human FRα Q141R (human, UniProt P15328 25-234); assay: as above
T2 construct: The entry is the mutant itself
Text: as §1, §2

[2] = molecular target: T3, mouse folate receptor alpha (mFRα), recombinant protein (mouse, UniProt P35846 25-232); assay: BLI tandem binning on mouse FRα; competitor (1st association) 3MFR60
T3 construct: Bought recombinant proteins (e.g. biotinylated, Acro Biosystems FO1-M82E9); also called mFOLR1; Ms FOLR1
Text: VHHs that share high sequence identity in the CDR3 region, a VHH family, are derived from the same B-cell lineage and diverged from each other due to somatic hypermutation or affinity maturation. Typically, VHHs from the same family recognize the same epitope on the target, but may differ in other characteristics ^{∘}De Genst et al 2006 PNAS 103:4586-4591; De Gents et al 2005 J Biol Chem 280:14114-14121). To study whether the VHHs from the different families bound different epitopes, epitope binning was performed using a tandem binding approach in BLI. One VHH from each family was allowed to bind to mouse FRα on the biosensor, followed by binding of the second VHH ^{∘}Table 4).
Competition between VHHs from different complementarity determining region ^{∘}CDR) 3 families was assessed in a tandem binding assay using biolayer interferometry ^{∘}BLI). Streptavidin biosensors were loaded with biotinylated mouse FRα ^{∘}Acro Biosystems, Cat.nr. FO1-M82E9), followed by binding of anti-FRα VHHs ^{∘}VHH in first association). The biosensors were then transferred to a solution containing a second VHH mixed 1:1 with the first VHH ^{∘}VHH in second association). Using the FortéBio Data Analysis Software the absolute additional binding signal for the second association on top of the first association was calculated. The data were normalized per VHH in first association using the following formula: ^{∘}signal-self)/^{∘}maximum-self) with self being the value of the VHH in first association in combination with the same VHH in second association.

[3] = molecular target: T4, human FRβ with R135 replaced by glutamine (human, UniProt P14207 17-230); assay: flow cytometry on transiently transfected HEK293T cells, 200 nM VHH, mouse anti-His then anti-mouse-PE (B575-A)
T4 construct: The entry is the mutant itself; also called hFRβ R135Q
Text: as §1, §2

T2 sequence (P15328 25-234 Q141R limits assumed): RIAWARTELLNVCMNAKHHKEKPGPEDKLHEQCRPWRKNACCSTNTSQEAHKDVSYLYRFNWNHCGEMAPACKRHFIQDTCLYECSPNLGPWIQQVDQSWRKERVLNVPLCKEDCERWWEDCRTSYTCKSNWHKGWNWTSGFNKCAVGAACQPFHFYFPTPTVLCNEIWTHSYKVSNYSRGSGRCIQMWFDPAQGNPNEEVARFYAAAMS
T1 sequence (P14207 17-230 limits assumed): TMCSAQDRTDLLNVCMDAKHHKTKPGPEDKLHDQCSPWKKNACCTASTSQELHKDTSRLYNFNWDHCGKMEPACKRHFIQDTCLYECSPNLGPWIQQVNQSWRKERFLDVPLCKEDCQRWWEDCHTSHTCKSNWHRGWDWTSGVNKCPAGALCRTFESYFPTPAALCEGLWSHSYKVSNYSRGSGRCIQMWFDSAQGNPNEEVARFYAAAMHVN
T4 sequence (P14207 17-230 R135Q limits assumed): as the sequence (P14207 17-230 limits assumed) above, with R119Q counted along it
T3 sequence (P35846 25-232 limits assumed): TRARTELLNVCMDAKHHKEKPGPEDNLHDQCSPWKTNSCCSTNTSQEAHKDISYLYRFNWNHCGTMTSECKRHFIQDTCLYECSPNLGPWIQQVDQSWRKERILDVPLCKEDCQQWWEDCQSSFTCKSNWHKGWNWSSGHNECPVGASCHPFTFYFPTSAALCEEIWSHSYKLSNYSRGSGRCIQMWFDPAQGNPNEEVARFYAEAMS

binding result [1]: no binding (tested: 200 nM)
binding result (human FRα Q141R): no binding (tested: 200 nM)
normalized additional binding in 2nd association [2]: -7%
binding result [3]: binds
B1: VHH 2HFO19 (family 1) (VHH)
VHH: QVQLQESGGGLVQPGGSLRVSCAASGFPFSTVYMSWVRQAPGKGLEWVSGINNDGGVIDYADSVKGRFTISRDNAKNTLYLQLNSLKPEDTALYFCARGRSFVATLSSSLRGQGTQVTVSS
notes: also called Nb19

binding result [1]: no binding (tested: 200 nM)
binding result (human FRα Q141R): no binding (tested: 200 nM)
normalized additional binding in 2nd association [2]: -2%
binding result [3]: binds
B2: VHH 2HFO42 (family 3) (VHH)
VHH: QVQLQESGGGLVQAGGSLRLSCAASGSGFSGMIMGWYRQVPGKQRELVATVTSHGTTNYADSVKGRFTISRDNAKNTVLLQMNSLKPEDTAVYYCNAHFPGIYWGKGTQVTVSS
notes: also called 2HF042; Nb42

binding result [1]: no binding (tested: 200 nM)
binding result (human FRα Q141R): no binding (tested: 200 nM)
normalized additional binding in 2nd association [2]: 0%
binding result [3]: binds
B3: VHH 3MFR60 (family 10) (VHH)
VHH: QVQLQESGGGLVQAGGSLRVSCAASGIIFSMNGMGWFRQAPGKQRELVASITSGGSTKYADSVKGRFTISRDNAKNTVYLQMNSLKPEDTAVYYCNIQFGSRWSTYWGQGTQVTVSS
